Laboratory results as given in US20130028888A1 (AERES BIOMEDICAL, published 2013).

Tests used:
[1] = biological target: T1, human CD22 expressed on the cell surface (human, UniProt P20273 20-847); experiment: cell ELISA on BHK cells expressing human CD22, COS-7 supernatant, OD 655 nm
T1 construct: whole, on cells; One entry covers all cell-surface formats (BHK-CD22, CHO, COS, Daudi, human B cells); also called hCD22; BHK-CD22

[2] = biological target: T1, human CD22 expressed on the cell surface; experiment: cell ELISA on BHK cells expressing human CD22, OD 655 nm
[3] = biological target: T1, human CD22 expressed on the cell surface; experiment: cell ELISA on BHK cells expressing human CD22, goat anti-mouse Ig-HRP, OD 450 nm
Description: The BHK-CD22 binding assay was used to test the binding activity of the chHB227 antibody in the transiently transformed COS 7 culture supernatants. A goat anti-human Ig-HRP conjugate (Sigma Chemicals) was used to detect binding of chHB22.7 mAb while a goat anti-mouse Ig-HRP conjugate (Southern Biotechnology) was used to detect binding of the parental mouse HB22.7 mAb. The bound HRP conjugates were exposed to the substrate o-phenyldiamine (OPD) and the resulting products detected at 450 nm.

[4] = biological target: T1, human CD22 expressed on the cell surface; experiment: BHK-CD22 cell ELISA

B1: chimeric HB22.7 antibody chHB227 (chH + chL) (antibody, human IgG1, V domains shown)
VH: QVQLKESGPGLVAPSQSLSITCTVSGFSLSDYGVNWVRQIPGKGLEWLGIIWGDGRTDYNSALKSRLNISKDNSKSQVFLKMNSLKADDTARYYCARAPGNRAMEYWGQGTSVTVS
VL: SIVMTQTPKFLLVSAGDRITLTCKASQSVTNDVAWYQQKPGQSPKLLIYYASNRYTGVPDRFTGSGYGTDFTFTISTVQAEDLAVYFCQQDYRSPWTFGGGTKLEI
notes: Mouse HB22.7 variable regions on human IgG1 and kappa constant regions (vectors pG1D20, pKN10); Transient COS-7 supernatant; also called CH+CK; fully chimeric antibody
**Q.** What does the source list for B1?
**A.** EC50 (read off the curve) [1]: ~0.1 µg/mL; EC50 (read off the curve) [2]: ~0.3 µg/mL

B2: parental mouse monoclonal anti-CD22 antibody HB22.7 (antibody, V domains shown)
VH: QVQLKESGPGLVAPSQSLSITCTVSGFSLSDYGVNWVRQIPGKGLEWLGIIWGDGRTDYNSALKSRLNISKDNSKSQVFLKMNSLKADDTARYYCARAPGNRAMEYWGQGTSVTVS
VL: SIVMTQTPKFLLVSAGDRITLTCKASQSVTNDVAWYQQKPGQSPKLLIYYASNRYTGVPDRFTGSGYGTDFTFTISTVQAEDLAVYFCQQDYRSPWTFGGGTKLEI
notes: Mouse hybridoma antibody (ATCC HB11347); Labelled with Alexa-fluor 488 or 647 in some cell assays; also called murine HB22.7; mouse HB22.7
**Q.** With B2 as the binder, how does the “EC50 (read off the curve)” value [3] read?
**A.** ~0.08 µg/mL

B3: HB227RHC heavy chain + chimeric HB22.7 light chain (chL) (antibody, human IgG1, V domains shown)
VH: QVQLQESGPALVKPTQTLTLTCTFSGFSLSDYGVNWIRQPPGKALEWLGIIWGDGRTDYNSALKSRLSISKDNSKNQVVLRMTNVDPVDTATYFCARAPGNRAMEYWGQGTVVTVSS
VL: SIVMTQTPKFLLVSAGDRITLTCKASQSVTNDVAWYQQKPGQSPKLLIYYASNRYTGVPDRFTGSGYGTDFTFTISTVQAEDLAVYFCQQDYRSPWTFGGGTKLEI
notes: Human IgG1/kappa constants; COS-7 supernatant; also called RHC+chL
**Q.** For B3, which “fold binding relative to chimeric light chain with HB227RHB” value [4] is on record?
**A.** ~2 fold

B4: HB227RHF heavy chain + chimeric HB22.7 light chain (chL) (antibody, human IgG1, V domains shown)
VH: QVQLQESGPALVKPTQTLTLTCTVSGFSLSDYGVNWIRQPPGKALEWLGIIWGDGRTDYNSALKSRLSISKDNSKNQVVLRMTNVDPVDTATYFCARAPGNRAMEYWGQGTVVTVSS
VL: SIVMTQTPKFLLVSAGDRITLTCKASQSVTNDVAWYQQKPGQSPKLLIYYASNRYTGVPDRFTGSGYGTDFTFTISTVQAEDLAVYFCQQDYRSPWTFGGGTKLEI
notes: Human IgG1/kappa constants; COS-7 supernatant; also called HB227RHF+chL; RHF+chL
**Q.** Which “EC50 (read off the curve)” value [1] does the source give for B4 here?
**A.** ~0.1 µg/mL

B5: humanized antibody HB227RHF + HB227RKC (antibody, human IgG1, V domains shown)
VH: QVQLQESGPALVKPTQTLTLTCTVSGFSLSDYGVNWIRQPPGKALEWLGIIWGDGRTDYNSALKSRLSISKDNSKNQVVLRMTNVDPVDTATYFCARAPGNRAMEYWGQGTVVTVSS
VL: DIVMTQSPSSLSASVGDRVTITCKASQSVTNDVAWYQQKPGKAPKLLIYYASNRYTGVPDRFSGSGYGTDFTLTISSLQPEDFATYFCQQDYRSPWTFGGGTKVEIKR
notes: Human IgG1/kappa constants; COS-7 supernatant; also called RHF+RKC; humanized (RHF+RKC) antibody
**Q.** How did the “EC50 (read off the curve)” value [1] turn out when B5 was run?
**A.** ~0.2 µg/mL
